Measured values from patent US6998123B1, “Osteoporosis treatment with anti-IL-11 antibody” (priority 1998, dated 2006).
“Also recorded” adds a separate entry of the source. Ends that are not written are not given here.

T1: IL-11 (Homo sapiens, UniProt P20809)
T1 sequence (P20809 22-199): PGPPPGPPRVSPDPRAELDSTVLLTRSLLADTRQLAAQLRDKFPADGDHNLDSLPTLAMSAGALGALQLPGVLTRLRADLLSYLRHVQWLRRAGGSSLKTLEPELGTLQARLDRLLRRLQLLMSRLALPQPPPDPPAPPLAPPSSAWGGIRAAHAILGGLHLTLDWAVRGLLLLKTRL


Experiments:
Interleukin-11 (IL-11) = experiment: cell-based or functional assay
IL-11 and IL-11R = experiment: productive interaction of IL-11 and IL-11R; design: species or system human; details: no test named at this place
[1] = system: murine calvaria cell culture; experiment: bone nodule formation assay with IL-11 antagonists in the presence of exogenous IL-11; format: cell-based; details: 20 ng/ml exogenous IL-11; for reduction of the inhibitory effect of IL-11 on bone nodule formation: very low levels/concentrations of test substance, 21 days, FIGS. 9, 10
Procedure: Bone nodule formation was measured using standard techniques. Briefly, calvaria cell cultures were established as follows: Calvaria cells were obtained from 2 day old fetal mouse calavariae by collagenase digestion. The cells were then cultured for 21 days in the presence of 0.5 mM ascorbic acid and 10 mM β-glycerophosphate. Where indicated in the experimental descriptions below, IL-11 and the mutant IL-11 receptor of experiment 4 were added to the culture at day 0 and every 3–4 days thereafter until the removal of the medium for analysis. Bone nodule formation was quantified by counting alizarin red stain nodules under a light microscope.
The effect of a gp130 binding region mutant soluble IL-11 receptor of type described in Experiment 4 and produced by the process of Experiment 3 on bone nodule formation in the presence of 20 ng/ml of exogenous IL-11 was assessed, and the results are depicted in FIG. 9. […] Thus, IL-11 antagonists such as mutant IL-11Rs can enhance bone nodule formation.
It was desired to determine if bone nodule formation could be modulated in a manner similar to that reported in Example 6 using an IL-11 antagonist peptide such as the one used in Example 5. To achieve this, the procedure of Example 6 was repeated, with the substitution of peptide 1 for the solubilized mutant IL-11 receptor. The results of this experiment are depicted in FIG. 10.

[2] = system: cocultures of murine bone marrow and calvaria cells; experiment: TRAP assay: osteoclast formation in cocultures; format: cell-based; details: for inhibition of IL-11 induced osteoclast formation (TRAP+ multinucleated cells): 20 ng/ml IL-11, 10, 100 or 1000 ng/ml test substance, 9 days, FIGS. 7A, 7B, 8
Description: Particular IL-11 antagonists useful in the treatment of IL-11 related bone density disorders may be identified using the TRAP assay and the bone nodule formation assay, discussed herein. The TRAP assay is known in the art and involves co-culturing murine calvaria (osteoblasts) and bone marrow cells in vitro and then quantifying osteoclast formation by counting the number of tartrate-resistant acid phosphatase positive (TRAP+) multinucleated cells. […] These potential IL-11 antagonists may be screened to determine if they are IL-11 antagonists by examining their activity in the TRAP assay and the bone nodule formation assay.
Post menopausal osteoporosis is characterized by a general reduction in bone mass, resulting from an imbalance between osteoblast-mediated bone formation and bone resorption by the osteoclast. While the osteoblast is responsible for the formation of new bone or osteoid, it also appears to control the activation and/or number of osteoclasts by releasing cytokines such as IL-6 or IL-11. This process can be examined using a “TRAP assay” which involves co-culturing murine calvaria (osteoblasts) and bone marrow cells in vitro and then quantifying osteoclast formation by counting the number of tartrate-resistant acid phosphatase positive (TRAP+) multinucleated cells. Ovariectomized (OVX) rats or mice provide a satisfactory animal model for postmenopausal women in studies of osteoporosis.
The effect of IL-11 on osteoclast development in cocultures of murine bone marrow and calvaria cells was examined using standard techniques. Briefly, bone marrow cultures were established by removing femurs from mice, dissecting away soft tissue, and removing the distal and proximal ends of the femur. The marrow was then flushed with 5 ml α MEM and 1.0% penicillin-streptomycin using a 25 gauge needle. The bone marrow cells were then suspended to a concentration of 5 000 000 cells per ml in α MEM containing 15% fetal calf serum (charcoal treated) to remove cells adherent to plastic. The non-adherent cells were then co-cultured for an additional 9 days with murine calvaria cells prior to being fixed and stained for TRAPase activity (stains were obtained from Sigma Chemical Co., St. Louis, Mo.). TRAP+ MNC's have the ability to form resorption pits in smooth cortical bone slices and are therefore considered to be of osteoclast origin.
The effect of IL-11 on osteoclast development in cocultures of murine bone marrow and calvaria cells was examined by maintaining these cultures in the presence of various specific concentrations of IL-11 for 9 days. After 9 days of culture, the cells were stained for TRAPase activity and the number of multinucleated TRAP+ cells were determined. The results of this experiment are depicted in Table I. Data are expressed as mean +/− SEM. […]

IL-11 = biological target: T1, IL-11; details: Karow et al., Biochem J. (1996); cited from earlier work
gp130 = details: Karow et al., Biochem J. (1996); cited from earlier work
[3] = system: murine calvaria cells (primary osteoblasts); experiment: bone nodule formation assay: effect of IL-11 alone; format: cell-based; details: various concentrations of IL-11; 250 μM ascorbic acid, 10 mM β-glycerol phosphate; FIG. 5
Procedure: The effect of IL-11 on bone formation was examined using the bone nodule formation assay. Murine calvaria cells (primary osteoblasts) were cultured in the presence of 250 μM ascorbic acid and 10 mM β-glycerol phosphate, and in the presence of various amounts of interleukin-11. After culturing, the culture media were plated out and the number of bone nodules per plate was counted.
The results are shown on the accompanying FIG. 5, where number of bone nodules per plate is plotted as the vertical axis, with the different concentrations of interleukin on the horizontal axis, not to scale. Each bar represents the result on experiments containing a different concentration of interleukin-11, as noted on FIG. 5.

Molecule | inhibition of the productive interaction of IL-11 and IL-11R (IL-11 and IL-11R) | reduction of the inhibitory effect of IL-11 on bone nodule formation [1] | inhibition of IL-11 induced osteoclast formation (TRAP+ multinucleated cells) [2] | further results
H289→Y289 mutant solubilized IL-11 receptor (from UniProt Q14626 24-370) |  |  |  | concentration of mutant receptor allowing enhanced bone nodule formation relative to no exogenous IL-11 (Interleukin-11 (IL-11)): 10 ng/mL
RRLRASW [SEQ ID NO. 5] | capable of inhibiting the productive interaction of IL-11 and IL-11R |  |  | 
RRLRASWTYPASWPCQPHFL [Peptide 1] | binds IL-11 and prevents its productive interaction with IL-11R | able to reduce the inhibitory effects of 20 ng/ml exogenous IL-11 | inhibits IL-11 induced osteoclast formation | 
SILRPDPPQGLRVESVPGYP [SEQ. ID. NO. 6] | inhibit the productive interaction between IL-11 and IL-11R |  |  | 
Thr Tyr Pro Ala Ser Trp Pro Cys Gln Pro His Phe Leu Leu Lys Phe Arg Leu Gin Tyr (TYPASWPCQPHFLLKFRLQY; listed as Homo sapiens) [Peptide 2, reference compound] |  | unable to reduce the inhibition of nodule formation by IL-11 | does not | 
H289→Y289 mutant solubilized IL-11 receptor: soluble human IL-11 receptor mutated H289 to Y in the gp130 binding region, expressed in BHK cells (protein, left off: small tags and cut ends) SPCPQAWGPPGVQYGQPGRSVKLCCPGVTAGDPVSWFRDGEPKLLQGPDSGLGHELVLAQADSTDEGTYICQTLDGALGGTVTLQLGYPPARPVVSCQAADYENFSCTWSPSQISGLPTRYLTSYRKKTVLGADSQRRSPSTGPWPCPQDPLGAARCVVHGAEFWSQYRINVTEVNPLGASTRLLDVSLQSILRPDPPQGLRVESVPGYPRRLRASWTYPASWPCQPHFLLKFRLQYRPAQHPAWSTVEPAGLEEVITDAVAGLPYAVRVSARDFLDAGTWSTWSPEAWGTPSTGTIPKEIPAWGQLHTQPEVEPQVDSPAPPRPSLQPHPRLLDHRDSVEQVAVLA |  | can reverse the effect of exogenous IL-11 | capable of inhibiting IL-11-induced osteoclast formation | bone nodule formation relative to level without exogenous IL-11 ([1]; 10 ng/ml mutant receptor, FIG. 9): enhanced bone nodule formation relative to the level observed in the absence of exogenous IL-11
soluble form of murine interleukin-11 receptor: soluble form of murine IL-11R produced by Karow et al. (protein, left off: small tags and cut ends) SPCPQAWGPPGVQYGQPGRSVKLCCPGVTAGDPVSWFRDGEPKLLQGPDSGLGHELVLAQADSTDEGTYICQTLDGALGGTVTLQLGYPPARPVVSCQAADYENFSCTWSPSQISGLPTRYLTSYRKKTVLGADSQRRSPSTGPWPCPQDPLGAARCVVHGAEFWSQYRINVTEVNPLGASTRLLDVSLQSILRPDPPQGLRVESVPGYPRRLRASWTYPASWPCQPHFLLKFRLQYRPAQHPAWSTVEPAGLEEVITDAVAGLPHAVRVSARDFLDAGTWSTWSPEAWGTPSTGTIPKEIPAWGQLHTQPEVEPQVDSPAPPRPSLQPHPRLLDHRDSVEQVAVLA |  |  |  | affinity for IL-11 ligand (IL-11): high affinity
IL-11: cytokine interleukin-11, added exogenously to cultures (protein, UniProt P47873 22-199, looked up) Interleukin-11: PGPPAGSPRVSSDPRADLDSAVLLTRSLLADTRQLAAQMRDKFPADGDHSLDSLPTLAMSAGTLGSLQLPGVLTRLRVDLMSYLRHVQWLRRAGGPSLKTLEPELGALQARLERLLRRLQLLMSRLALPQAAPDQPVIPLGPPASAWGSIRAAHAILGGLHLTLDWAVRGLLLLKTRL |  |  |  | effect of IL-11 on osteoclast formation in vitro ([2]; cocultures of murine calvaria and bone marrow cells): potent simulator of osteoclast formation; affinity for gp130 (gp130): below the level of detection; number of bone nodules per plate (bone formation) [3]: can inhibit bone nodule formation; also recorded: inhibits bone formation
